T1: Human CD3eg linker (human)
T1 construct: single-chain construct; also called recombinant human CD3
T1 chain: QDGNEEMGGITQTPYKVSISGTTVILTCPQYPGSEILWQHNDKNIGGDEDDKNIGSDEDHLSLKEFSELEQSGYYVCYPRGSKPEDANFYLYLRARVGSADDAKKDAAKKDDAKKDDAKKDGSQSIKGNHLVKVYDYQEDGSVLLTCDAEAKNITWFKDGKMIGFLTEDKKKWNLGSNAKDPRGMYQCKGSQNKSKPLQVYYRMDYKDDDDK


Molecular target: T1, Human CD3eg linker
Experiment: SPR, vs unmutated H183/L072

fold change of affinity [fold]	Binder
1.8	dBBDu183H S99K/dBBDu072L (antibody, name in Kabat numbering, V domains shown) VH: QVQLVESGGGLVQPGRSLRLSCAASGFTFSNAWMHWVRQAPGKGLEWVAQIKDKGNAYAAYYAPSVKGRFTISRDDSKNSIYLQMNSLKTEDTAVYYCHYVHYAKASTVLPAFGVDAWGQGTTVTVSS VL: DIVMTQSPLSLPVTPGEPASISCQASQELVHMNRNTYLHWYQQKPGQAPRLLIYKVSNRFPGVPDRFSGSGSGTDFTLKISRVEAEDVGVYYCAQGTSVPFTFGQGTKLEIK
0.3	dBBDu183H S99D/dBBDu072L (antibody, name in Kabat numbering, V domains shown) VH: QVQLVESGGGLVQPGRSLRLSCAASGFTFSNAWMHWVRQAPGKGLEWVAQIKDKGNAYAAYYAPSVKGRFTISRDDSKNSIYLQMNSLKTEDTAVYYCHYVHYADASTVLPAFGVDAWGQGTTVTVSS VL: DIVMTQSPLSLPVTPGEPASISCQASQELVHMNRNTYLHWYQQKPGQAPRLLIYKVSNRFPGVPDRFSGSGSGTDFTLKISRVEAEDVGVYYCAQGTSVPFTFGQGTKLEIK
1	dBBDu183H S99F/dBBDu072L (antibody, name in Kabat numbering, V domains shown) VH: QVQLVESGGGLVQPGRSLRLSCAASGFTFSNAWMHWVRQAPGKGLEWVAQIKDKGNAYAAYYAPSVKGRFTISRDDSKNSIYLQMNSLKTEDTAVYYCHYVHYAFASTVLPAFGVDAWGQGTTVTVSS VL: DIVMTQSPLSLPVTPGEPASISCQASQELVHMNRNTYLHWYQQKPGQAPRLLIYKVSNRFPGVPDRFSGSGSGTDFTLKISRVEAEDVGVYYCAQGTSVPFTFGQGTKLEIK
1	dBBDu183H S99G/dBBDu072L (antibody, name in Kabat numbering, V domains shown) VH: QVQLVESGGGLVQPGRSLRLSCAASGFTFSNAWMHWVRQAPGKGLEWVAQIKDKGNAYAAYYAPSVKGRFTISRDDSKNSIYLQMNSLKTEDTAVYYCHYVHYAGASTVLPAFGVDAWGQGTTVTVSS VL: DIVMTQSPLSLPVTPGEPASISCQASQELVHMNRNTYLHWYQQKPGQAPRLLIYKVSNRFPGVPDRFSGSGSGTDFTLKISRVEAEDVGVYYCAQGTSVPFTFGQGTKLEIK
0.3	dBBDu183H S99E/dBBDu072L (antibody, name in Kabat numbering, V domains shown) VH: QVQLVESGGGLVQPGRSLRLSCAASGFTFSNAWMHWVRQAPGKGLEWVAQIKDKGNAYAAYYAPSVKGRFTISRDDSKNSIYLQMNSLKTEDTAVYYCHYVHYAEASTVLPAFGVDAWGQGTTVTVSS VL: DIVMTQSPLSLPVTPGEPASISCQASQELVHMNRNTYLHWYQQKPGQAPRLLIYKVSNRFPGVPDRFSGSGSGTDFTLKISRVEAEDVGVYYCAQGTSVPFTFGQGTKLEIK
0.7	dBBDu183H S99H/dBBDu072L (antibody, name in Kabat numbering, V domains shown) VH: QVQLVESGGGLVQPGRSLRLSCAASGFTFSNAWMHWVRQAPGKGLEWVAQIKDKGNAYAAYYAPSVKGRFTISRDDSKNSIYLQMNSLKTEDTAVYYCHYVHYAHASTVLPAFGVDAWGQGTTVTVSS VL: DIVMTQSPLSLPVTPGEPASISCQASQELVHMNRNTYLHWYQQKPGQAPRLLIYKVSNRFPGVPDRFSGSGSGTDFTLKISRVEAEDVGVYYCAQGTSVPFTFGQGTKLEIK
1.5	dBBDu183H S62Y/dBBDu072L (antibody, name in Kabat numbering, V domains shown) VH: QVQLVESGGGLVQPGRSLRLSCAASGFTFSNAWMHWVRQAPGKGLEWVAQIKDKGNAYAAYYAPYVKGRFTISRDDSKNSIYLQMNSLKTEDTAVYYCHYVHYASASTVLPAFGVDAWGQGTTVTVSS VL: DIVMTQSPLSLPVTPGEPASISCQASQELVHMNRNTYLHWYQQKPGQAPRLLIYKVSNRFPGVPDRFSGSGSGTDFTLKISRVEAEDVGVYYCAQGTSVPFTFGQGTKLEIK

More lines, now with the values behind:

Binder	fold change of affinity [fold]
dBBDu183H P100eY/dBBDu072L (antibody, name in Kabat numbering, V domains shown) VH: QVQLVESGGGLVQPGRSLRLSCAASGFTFSNAWMHWVRQAPGKGLEWVAQIKDKGNAYAAYYAPSVKGRFTISRDDSKNSIYLQMNSLKTEDTAVYYCHYVHYASASTVLYAFGVDAWGQGTTVTVSS VL: DIVMTQSPLSLPVTPGEPASISCQASQELVHMNRNTYLHWYQQKPGQAPRLLIYKVSNRFPGVPDRFSGSGSGTDFTLKISRVEAEDVGVYYCAQGTSVPFTFGQGTKLEIK	2
dBBDu183H S62H/dBBDu072L (antibody, name in Kabat numbering, V domains shown) VH: QVQLVESGGGLVQPGRSLRLSCAASGFTFSNAWMHWVRQAPGKGLEWVAQIKDKGNAYAAYYAPHVKGRFTISRDDSKNSIYLQMNSLKTEDTAVYYCHYVHYASASTVLPAFGVDAWGQGTTVTVSS VL: DIVMTQSPLSLPVTPGEPASISCQASQELVHMNRNTYLHWYQQKPGQAPRLLIYKVSNRFPGVPDRFSGSGSGTDFTLKISRVEAEDVGVYYCAQGTSVPFTFGQGTKLEIK	1.3
dBBDu183H S62W/dBBDu072L (antibody, name in Kabat numbering, V domains shown) VH: QVQLVESGGGLVQPGRSLRLSCAASGFTFSNAWMHWVRQAPGKGLEWVAQIKDKGNAYAAYYAPWVKGRFTISRDDSKNSIYLQMNSLKTEDTAVYYCHYVHYASASTVLPAFGVDAWGQGTTVTVSS VL: DIVMTQSPLSLPVTPGEPASISCQASQELVHMNRNTYLHWYQQKPGQAPRLLIYKVSNRFPGVPDRFSGSGSGTDFTLKISRVEAEDVGVYYCAQGTSVPFTFGQGTKLEIK	2
dBBDu183H S62D/dBBDu072L (antibody, name in Kabat numbering, V domains shown) VH: QVQLVESGGGLVQPGRSLRLSCAASGFTFSNAWMHWVRQAPGKGLEWVAQIKDKGNAYAAYYAPDVKGRFTISRDDSKNSIYLQMNSLKTEDTAVYYCHYVHYASASTVLPAFGVDAWGQGTTVTVSS VL: DIVMTQSPLSLPVTPGEPASISCQASQELVHMNRNTYLHWYQQKPGQAPRLLIYKVSNRFPGVPDRFSGSGSGTDFTLKISRVEAEDVGVYYCAQGTSVPFTFGQGTKLEIK	1.2
dBBDu183H S62E/dBBDu072L (antibody, name in Kabat numbering, V domains shown) VH: QVQLVESGGGLVQPGRSLRLSCAASGFTFSNAWMHWVRQAPGKGLEWVAQIKDKGNAYAAYYAPEVKGRFTISRDDSKNSIYLQMNSLKTEDTAVYYCHYVHYASASTVLPAFGVDAWGQGTTVTVSS VL: DIVMTQSPLSLPVTPGEPASISCQASQELVHMNRNTYLHWYQQKPGQAPRLLIYKVSNRFPGVPDRFSGSGSGTDFTLKISRVEAEDVGVYYCAQGTSVPFTFGQGTKLEIK	1.2
dBBDu183H S62Q/dBBDu072L (antibody, name in Kabat numbering, V domains shown) VH: QVQLVESGGGLVQPGRSLRLSCAASGFTFSNAWMHWVRQAPGKGLEWVAQIKDKGNAYAAYYAPQVKGRFTISRDDSKNSIYLQMNSLKTEDTAVYYCHYVHYASASTVLPAFGVDAWGQGTTVTVSS VL: DIVMTQSPLSLPVTPGEPASISCQASQELVHMNRNTYLHWYQQKPGQAPRLLIYKVSNRFPGVPDRFSGSGSGTDFTLKISRVEAEDVGVYYCAQGTSVPFTFGQGTKLEIK	1.3
dBBDu183H S62R/dBBDu072L (antibody, name in Kabat numbering, V domains shown) VH: QVQLVESGGGLVQPGRSLRLSCAASGFTFSNAWMHWVRQAPGKGLEWVAQIKDKGNAYAAYYAPRVKGRFTISRDDSKNSIYLQMNSLKTEDTAVYYCHYVHYASASTVLPAFGVDAWGQGTTVTVSS VL: DIVMTQSPLSLPVTPGEPASISCQASQELVHMNRNTYLHWYQQKPGQAPRLLIYKVSNRFPGVPDRFSGSGSGTDFTLKISRVEAEDVGVYYCAQGTSVPFTFGQGTKLEIK	1.5
dBBDu183H S62F/dBBDu072L (antibody, name in Kabat numbering, V domains shown) VH: QVQLVESGGGLVQPGRSLRLSCAASGFTFSNAWMHWVRQAPGKGLEWVAQIKDKGNAYAAYYAPFVKGRFTISRDDSKNSIYLQMNSLKTEDTAVYYCHYVHYASASTVLPAFGVDAWGQGTTVTVSS VL: DIVMTQSPLSLPVTPGEPASISCQASQELVHMNRNTYLHWYQQKPGQAPRLLIYKVSNRFPGVPDRFSGSGSGTDFTLKISRVEAEDVGVYYCAQGTSVPFTFGQGTKLEIK	1.9
dBBDu183H S62T/dBBDu072L (antibody, name in Kabat numbering, V domains shown) VH: QVQLVESGGGLVQPGRSLRLSCAASGFTFSNAWMHWVRQAPGKGLEWVAQIKDKGNAYAAYYAPTVKGRFTISRDDSKNSIYLQMNSLKTEDTAVYYCHYVHYASASTVLPAFGVDAWGQGTTVTVSS VL: DIVMTQSPLSLPVTPGEPASISCQASQELVHMNRNTYLHWYQQKPGQAPRLLIYKVSNRFPGVPDRFSGSGSGTDFTLKISRVEAEDVGVYYCAQGTSVPFTFGQGTKLEIK	1.3
dBBDu183H S62N/dBBDu072L (antibody, name in Kabat numbering, V domains shown) VH: QVQLVESGGGLVQPGRSLRLSCAASGFTFSNAWMHWVRQAPGKGLEWVAQIKDKGNAYAAYYAPNVKGRFTISRDDSKNSIYLQMNSLKTEDTAVYYCHYVHYASASTVLPAFGVDAWGQGTTVTVSS VL: DIVMTQSPLSLPVTPGEPASISCQASQELVHMNRNTYLHWYQQKPGQAPRLLIYKVSNRFPGVPDRFSGSGSGTDFTLKISRVEAEDVGVYYCAQGTSVPFTFGQGTKLEIK	1.4
dBBDu183H S62K/dBBDu072L (antibody, name in Kabat numbering, V domains shown) VH: QVQLVESGGGLVQPGRSLRLSCAASGFTFSNAWMHWVRQAPGKGLEWVAQIKDKGNAYAAYYAPKVKGRFTISRDDSKNSIYLQMNSLKTEDTAVYYCHYVHYASASTVLPAFGVDAWGQGTTVTVSS VL: DIVMTQSPLSLPVTPGEPASISCQASQELVHMNRNTYLHWYQQKPGQAPRLLIYKVSNRFPGVPDRFSGSGSGTDFTLKISRVEAEDVGVYYCAQGTSVPFTFGQGTKLEIK	1.4
dBBDu183H S62V/dBBDu072L (antibody, name in Kabat numbering, V domains shown) VH: QVQLVESGGGLVQPGRSLRLSCAASGFTFSNAWMHWVRQAPGKGLEWVAQIKDKGNAYAAYYAPVVKGRFTISRDDSKNSIYLQMNSLKTEDTAVYYCHYVHYASASTVLPAFGVDAWGQGTTVTVSS VL: DIVMTQSPLSLPVTPGEPASISCQASQELVHMNRNTYLHWYQQKPGQAPRLLIYKVSNRFPGVPDRFSGSGSGTDFTLKISRVEAEDVGVYYCAQGTSVPFTFGQGTKLEIK	1.4
dBBDu183H S62G/dBBDu072L (antibody, name in Kabat numbering, V domains shown) VH: QVQLVESGGGLVQPGRSLRLSCAASGFTFSNAWMHWVRQAPGKGLEWVAQIKDKGNAYAAYYAPGVKGRFTISRDDSKNSIYLQMNSLKTEDTAVYYCHYVHYASASTVLPAFGVDAWGQGTTVTVSS VL: DIVMTQSPLSLPVTPGEPASISCQASQELVHMNRNTYLHWYQQKPGQAPRLLIYKVSNRFPGVPDRFSGSGSGTDFTLKISRVEAEDVGVYYCAQGTSVPFTFGQGTKLEIK	1.4

From patent US20210388087A1 (Chugai, published 2021)
